Here are results for two molecules from US11203633B2, “Polynucleotides encoding antibodies or antigen binding fragments thereof that bind pseudomonas perv” (priority 2011, dated 2021).

The subject of experiment [1] is P. aeruginosa strains (PAO1, 33356, 6294, 6077, 6206, PA103A). The experiment can be described thus: Acute pneumonia model in mice, survival. The class given is in vivo, Pseudomonas aeruginosa. How it is done:
(§1) Antibodies or PBS were administered 24 hours before infection in each model. P. aeruginosa acute pneumonia, keratitis, and thermal injury infection models were performed as described (DiGiandomenico, A., et al., Proc Natl Acad Sci USA 104, 4624-4629 (2007)), with modifications. In the acute pneumonia model, BALB/c mice (The Jackson Laboratory) were infected with P. aeruginosa strains suspended in a 0.05 ml inoculum. In the thermal injury model, CF-1 mice (Charles River) received a 10% total body surface area burn with a metal brand heated to 92° C. for 10 seconds. Animals were infected subcutaneously with P. aeruginosa strain 6077 at the indicated dose. For organ burden experiments, acute pneumonia was induced in mice followed by harvesting of lungs, spleens, and kidneys 24 hours post-infection for determination of CFU.
The in vivo effect of administration of an anti-PcrV antibodies was studied in mice using an acute pneumonia model. Groups of mice were treated with either increasing concentrations of the V2L2 antibody, a positive control anti-PcrV antibody (mAb166), or a negative control (R347), as shown in FIG. 13 (A-B). Groups of mice were also treated with either increasing concentrations of the V2L2 antibody, the PcrV antibody PcrV-02, or a negative control (R347), as shown in FIG. 13 (C-D). Twenty-four hours after treatment, all mice were infected with 5×10^7 CFU (C) Pseudomonas aeruginosa 6294 (06) or (D) PA103A (O11).
Groups of mice were treated with either increasing concentrations of the 11A6, 3G5 or V2L7, the same concentrations of 29D2, 1F3, 1E6, V2L2, LE10, SH3, 4A8, 2H3, or 21F1, increasing concentrations of the 29D2, increasing concentrations of the V2L2, the PcrV antibody PcrV-02, or a negative control (R347), as shown in FIG. 13 (E-H). Mice were injected intraperitoneally (IP) with mAbs 24 hours prior to intranasal infection with Pseudomonas strain 6077 (1×10^6 CFU/animal).

Experiment [2] has as its system luminescent P. aeruginosa serogroup 011 strain (9882-80.lux). Nature of the experiment: OPK assay, 9882-80.lux. The class given is cell-based, Pseudomonas aeruginosa. The following applies: strain 9882-80 (O11); FIG. 2B. Here is the method:
(§2) This example describes the evaluation of prioritized human IgG1 antibodies to promote OPK of P. aeruginosa. […] OPK assays were performed as described in (DiGiandomenico, A., et al., Infect Immun 72, 7012-7021 (2004)), with modifications. Briefly, assays were performed in 96-well plates using 0.025 ml of each OPK component; P. aeruginosa strains; diluted baby rabbit serum; differentiated HL-60 cells; and monoclonal antibody. In some OPK assays, luminescent P. aeruginosa strains, which were constructed as described (Choi, K. H., et al., Nat Methods 2, 443-448 (2005)), were used. Luminescent OPK assays were performed as described above but with determination of relative luciferase units (RLUs) using a Perkin Elmer ENVISION Multilabel plate reader (Perkin Elmer).
The ability of the WapR-004 and Cam-003 antibodies to mediate OPK activity against another clinically relevant 0-antigen serotype strain, 9882-80.lux, was evaluated.

For experiment [3], the system named is P. aeruginosa strain 6077 (O11-cytotoxic). The experiment can be described thus: Corneal infection (ocular keratitis) model in mice. The class given is in vivo, Pseudomonas aeruginosa.
The test system of experiment [4] is luminescent P. aeruginosa serogroup 05 strain (PAO1.lux). Nature of the experiment: Opsonophagocytic killing (OPK) assay, PAO1.lux. The class given is cell-based, Pseudomonas aeruginosa. To be noted: purified human IgG1 mAbs from phage panning; FIG. 2A. Here is the method: as §2
The test system of experiment [5] is P. aeruginosa strains 6206 and 6294. Nature of the experiment: Acute pneumonia model in mice, histological examination of lung tissue. The class given is in vivo, Pseudomonas aeruginosa.
Experiment [6] concerns P. aeruginosa strains (PAO1, 33356, 6294, 6077, 6206). Nature of the experiment: Acute pneumonia model in mice, organ burden (CFU in lung, spleen, kidneys). The class given is in vivo, Pseudomonas aeruginosa. Here is the method: as §1
Organ burden of Pseudomonas-infected mice was also studied in response to administration of V2L2. FIG. 14 (A) Mice were treated with either 1 mg/kg R347 (control), or 1 mg/kg, 0.2 mg/kg, or 0.07 mg/kg of V2L2 and then were infected intranasally with 1.2×10^6 cfu of Pseudomonas 6206. FIG. 14 (B) Mice were also treated with either 15 mg/kg R347 (negative control); 15.0 mg/kg, 5.0 mg/kg, or 1.0 mg/kg mAb166 (positive control); or 5.0 mg/kg, 1.0 mg/kg, or 0.2 mg/kg V2L2 and then were infected intranasally with 5.5×10^6 cfu of Pseudomonas 6206.
The in vivo effect of combination administration of anti-Psl and anti-PcrV binding domains was further studied in mice using the antibodies V2L2 and WapR-004 (RAD). Groups of mice were treated with R347 (2.1 mg/kg—negative control), V2L2 (0.1 mg/kg), W4-RAD (0.5 mg/kg), or V2L2/W4 combination (either 0.1, 0.5, 1.0 or 2.0 mg/kg each). Twenty-four hours post-administration of antibody, all mice were infected with an inoculum containing 5.25×10^5 cfu 6206 (O11-ExoU+). Twenty-four hours post infection, lungs, spleens, and kidneys were harvested, homogenized, and plated for colony forming unit (CFU) identification per gram of tissue.

Experiment [7] deals with P. aeruginosa strain 6077 (O11-cytotoxic). Nature of the experiment: Corneal infection (ocular keratitis) model in mice. The class given is in vivo, Pseudomonas aeruginosa. The following applies: C3H/HeN mice; IP, 16 hours prior to infection with 6077 1×10^6 CFU; graded at 48 h; FIG. 8H. Here is the method:
as §1
Cam-003 and WapR-004 efficacy was next evaluated in a P. aeruginosa corneal infection model which emphasizes the pathogens ability to attach and colonize damaged tissue. […] FIG. 8 (H): The activity of anti-Psl and anti-PcrV monoclonal antibodies V2L2 was tested in a P. aeruginosa mouse ocular keratitis model. […]

The mark [8] stands for this setting: Table 5, 6206 5.25×10^5 cfu, R347 2.1 mg/kg, V2L2 0.1 mg/kg, WapR-004 0.5 mg/kg.
The mark [9] stands for this setting: Table 6A, strain 6294 1.33×10^7 CFU, 0.2 mg/kg (combination 0.1 mg/kg ea).
Where [10] appears, read: Table 6B, strain 6294 1.7×10^7 CFU, 0.2 mg/kg (combination 0.1 mg/kg ea).
The mark [11] stands for this setting: Table 7, strain 6206 9.25×10^5 CFU, 0.2 mg/kg (combination 0.1 mg/kg ea).
The mark [12] stands for this setting: 6294 (06) and 6206 (O11), FIG. 7E-F.

Residue numbers refer to the chain shown, from its start. Numbers in names are those of the source.

B1: WapR-004: anti-Psl human IgG1 monoclonal antibody; VH SEQ ID NO:11, VL SEQ ID NO:12 (antibody, V domains shown)
VH: EVQLLESGPGLVKPSETLSLTCNVAGGSISPYYWTWIRQPPGKGLELIGYIHSSGYTDYNPSLKSRVTISGDTSKKQFSLHVSSVTAADTAVYFCARGDWDLLHALDIWGQGTLVTVSS
VL: EIVLTQSPSSLSTSVGDRVTITCRASQSIRSHLNWYQQKPGKAPKLLIYGASNLQSGVPSRFSGSGSGTDFTLTISSLQPEDFATYYCQQSYSFPLTFGGGTKLEIK
modifications: human IgG1 constant regions not cited; WapR-004 VH; WapR-004 & WarR-004RAD VL
For B1, in experiment [1] (strain 6077 (O11) 8×10^5 or 6×10^5 CFU, 5 and 1 mg/kg, FIG. 6E-F), the survival entry is recorded as “significant concentration-dependent survival”. Further, the OPK activity result in experiment [2] is recorded as “OPK activity extends to strain 9882-80 (O11)”. The “corneal pathology and bacterial counts vs negative control-treated animals” value in experiment [3] (6077, antibody 24 hours prior to infection, FIG. 8A-D, F-G) was “significantly less pathology and reduced bacterial counts in total eye homogenates”. Further, the “Cam-003 (45 mg/kg) vs. WapR-004 (15 mg/kg), Mann-Whitney U-test P” value in experiment [3] (FIG. 8F-G) worked out at 0.0025. Further, in experiment [3] (FIG. 8F-G), the “Cam-003 (45 mg/kg) vs. WapR-004 (45 mg/kg), Mann-Whitney U-test P” value was 0.018. Further, the “WapR-004 (45 mg/kg) vs. WapR-004 (15 mg/kg), Mann-Whitney U-test P” value in experiment [3] (FIG. 8F-G) was found to be 0.1331. The “OPK activity (killing of PAO1.lux)” value in experiment [4] is “superior OPK activity”. Besides, the “Inflammatory Infiltrate” value in experiment [5] (setting [8]) is “PMN 2-3+”; in experiment [5] (setting [9]), “PMN 3+”; in experiment [5] (setting [10]) it was “PMN 2+”; in experiment [5] (setting [11]), “PMN 2+”. Further, the “Involved Lung Surface Area” value in experiment [5] (setting [8]) was 50%; in experiment [5] (setting [9]) it was “(57%), mod epithelial injury,”; in experiment [5] (setting [10]), “(40%), mod epithelial injury,”; in experiment [5] (setting [11]) it was “(36%), mild epithelial injury,”. The “Overall Impression” value in experiment [5] (setting [8]) is recorded as “Broncho interstitial pneumonia”; in experiment [5] (Table 6A, BALB/c mice, strain 6294 1.33×10^7 CFU, 0.2 mg/kg (combination 0.1 mg/kg ea)), “Broncho interstitial pneumonia”; in experiment [5] (Table 6B, BALB/c mice, strain 6294 1.7×10^7 CFU, 0.2 mg/kg (combination 0.1 mg/kg ea)), “Broncho interstitial pneumonia”; in experiment [5] (Table 7, BALB/c mice, strain 6206 9.25×10^5 CFU, 0.2 mg/kg (combination 0.1 mg/kg ea)), “Broncho interstitial pneumonia”. The “Hemorrhage (extent)” value in experiment [5] (setting [9]) is listed as “Extensive”. For the same molecule, the Bacteria entry in experiment [5] (setting [10]) is listed as “Neg-2+”; in experiment [5] (setting [11]), “Neg-1+”. In addition, the organ burden result in experiment [6] (6206 (O11-ExoU+) 5.25×10^5 cfu, V2L2 0.1 mg/kg, W4-RAD 0.5 mg/kg, FIG. 15) is recorded as “effective in lowering organ burden”; in experiment [6] (setting [12]), “reduced organ burden”. For the same molecule, the “viable CFU vs. R347, Mann-Whitney U-test P” value in experiment [6] (6206, kidney, 5 mg/kg, FIG. 7F) is given as 0.0268; in experiment [6] (6206, kidney, 15 mg/kg, FIG. 7F), 0.0208; in experiment [6] (6206, lung, 1 mg/kg, FIG. 7F), 0.0079; in experiment [6] (6206, lung, 5 mg/kg, FIG. 7F), 0.0006; in experiment [6] (6206, spleen, 1 mg/kg, FIG. 7F), 0.0047; in experiment [6] (6206, spleen, 5 mg/kg, FIG. 7F) it was 0.0261. The “viable CFU vs. R347, Mann-Whitney U-test P” value was determined as 0.0059 in experiment [6] (6206, spleen, 15 mg/kg, FIG. 7F); 0.0002 in experiment [6] (6294 ~1×10^7 CFU, lung, 1 mg/kg, FIG. 7E); 0.0004 in experiment [6] (6294 ~1×10^7 CFU, lung, 5 mg/kg, FIG. 7E); 0.0011 in experiment [6] (6294 ~1×10^7 CFU, lung, 15 mg/kg, FIG. 7E); 0.0014 in experiment [6] (6294 ~1×10^7 CFU, spleen, 5 mg/kg, FIG. 7E). Besides, the “dissemination to the spleen and kidneys” value in experiment [6] (setting [12]) is “effective at reducing P. aeruginosa dissemination to the spleen and kidneys”.

B2: WapR-004RAD: identical to WapR-004 except for an amino acid substitution G98A of the VH; VH SEQ ID NO:74, VL SEQ ID NO:12 (antibody, V domains shown)
VH: B1 VH with G98A
VL: B1 VL
modifications: WapR-004RAD VH; WapR-004 & WarR-004RAD VL
In the case of B2, in experiment [1] (6206, W4-RAD 0.2 mg/kg, monitored 120 hours, FIG. 21A), the animals survived result is on record as “Approximately 90%”. Also, the effect on survival entry in experiment [1] (6294, W4-RAD 0.2 mg/kg, FIG. 24) is listed as “did not affect survival”. Moreover, the “corneal pathology and CFU in total eye homogenates vs R347” value in experiment [7] was “significantly less pathology and reduced bacterial colony forming units (CFU) in total eye homogenates”. Besides, in experiment [6] (6294 2.5×10^7 CFU, bispecifics 0.7 mg/kg, W4-RAD 0.5 mg/kg, FIG. 23A), the “organ burden in lung, spleen, kidney” value is on record as “had no effect on decreasing organ burden”.
